Assay results: paper doi:10.1101/2020.12.01.406983 (bioRxiv, 2020)

Biological target: canine parvovirus (CPV) capsid (Canine parvovirus type 2, strain CPV-d …, UniProt P17455)
Assay: cryo-EM structure

Chain of canine parvovirus (CPV) capsid (P17455 whole entry, looked up): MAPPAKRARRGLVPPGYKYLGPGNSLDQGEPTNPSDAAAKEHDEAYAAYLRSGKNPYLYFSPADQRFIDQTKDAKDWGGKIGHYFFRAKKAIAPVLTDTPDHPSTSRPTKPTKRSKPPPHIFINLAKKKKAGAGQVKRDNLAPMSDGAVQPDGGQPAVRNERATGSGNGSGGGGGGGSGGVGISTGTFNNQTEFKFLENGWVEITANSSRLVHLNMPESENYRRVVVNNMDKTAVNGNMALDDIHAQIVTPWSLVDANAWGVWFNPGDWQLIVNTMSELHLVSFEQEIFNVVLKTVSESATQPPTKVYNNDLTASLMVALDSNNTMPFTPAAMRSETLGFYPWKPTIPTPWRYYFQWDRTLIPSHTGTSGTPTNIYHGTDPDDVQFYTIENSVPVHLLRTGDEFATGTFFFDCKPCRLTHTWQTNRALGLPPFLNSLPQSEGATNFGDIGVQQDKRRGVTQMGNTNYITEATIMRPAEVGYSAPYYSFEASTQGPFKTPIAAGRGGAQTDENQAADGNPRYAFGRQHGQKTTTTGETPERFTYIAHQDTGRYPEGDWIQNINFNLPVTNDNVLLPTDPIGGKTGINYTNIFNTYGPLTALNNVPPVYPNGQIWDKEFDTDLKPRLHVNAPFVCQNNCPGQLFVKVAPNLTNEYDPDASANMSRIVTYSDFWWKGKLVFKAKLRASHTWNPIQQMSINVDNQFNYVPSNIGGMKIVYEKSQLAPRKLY

B1: Fab of MAb14 (Fab 14) (Fab, V domains shown)
VH: AVHLQGTELVKPGASAGVKLSCKASGYTFTNYDMNWVRQRPEQGLEWIGWIFPGDGSTRYNEKFKGKATLTTDKSSSTAYQLNRLTSEDSAVYFCARRGSHGSYSFAYWGQGTLVTVSG
VL: DIVMTQSHKFMSTSVGDRVSITCKASQDVNTALAWYQQIPGQSPKLLIYSASNRYTGVPDRFTASGSGTDFTFTISSVQAEDLALYYCQQHYTTPWTFGGGTKLEIK
- stoichiometry N: ~60 Fab 14 molecules per capsid
